Measured values taken from publication PMC11137118, “Liver and pancreatic-targeted interleukin-22 as a therapeutic for metabolic dysfunction-associated steatohepatitis” (Nature Communications, 2024).

B1: human IL-22 (hIL-22) (ligand, UniProt Q9GZX6 34-179, looked up)
chain: APISSHCRLDKSNFQQPYITNRTFMLAKEASLADNNTDVRLIGEKLFHGVSMSERCYLMKQVLNFTLEEVLFPQSDRFQPYMQEVVPFLARLSNRLSTCHIEGDDLHIQRNVQKLKDTVKKLGESGEIKAIGELDLLFMSLRNACI
notes: interleukin-22, human; codon optimised; the IL-22 stretch is then probably the mature protein; also called native hIL-22; native human IL-22; source: CHO-S, transiently transfected, secreted, purified (HisTrap Excel, HiTrap Q flow-through)
B2: hIL-22-GLP1 (human IL-22 fused to a GLP1 receptor binding protein) (other)
chain: B1 chain

Target: the molecule itself
Test: SEC + other: Western blot; HPLC-SEC: 50 uL of purified protein at 0.5 mg/mL on TSKgel 3000SWXL, 0.8 mL/min, PBS + 200 mM NaCl (pH 7.3), gel filtration standard for apparent molecular weight; Western blot conditions not told

Row | Protein | stoichiometry N
1 | B1 | 2
2 | B2 | 2
